Assay results reported in patent US20200147178A1 (SYNERKINE PHARMA B V, published 2020).

Target: the molecule itself
Test: HP-SEC, self-association
Procedure: To determine the molecular weight of the IL4-IL10 fusion protein, a High Performance Size Exclusion Chromatography (HP-SEC) assay was performed. The gel filtration (BioSuite 125 4 μm UHR SEC Column; Waters; Cat #186002161) was performed on a High-Performance Liquid Chromatography System (Shimadzu) with 50 mM phosphate buffer containing 0.5 M NaCl as mobile phase. The column was calibrated prior to the run using a protein mix of thyroglobulin, bovine serum albumen, carbonic anhydrase, myoglobulin, and ribonuclease. The IL4-IL10 fusion protein purified by cation exchange was obtained by pooling and concentrating the chromatography fractions with the highest IL4-IL10 fusion protein content (2 ml of pooled fractions was concentrated to 100 μl, containing 2 μg of IL4-IL10 fusion protein). Fifty μl of 20 μg/ml of pooled IL4-IL10 fusion protein was injected and ran trough the column at a flow rate of 0.35 ml/min and under a pressure of 35 bar. Fractions of 175 μl were collected and the IL4 and IL10 content was measured in the above described IL4 and IL10 ELISA (1/500 dilution). Similar runs with recombinant human IL4 (Sigma, Cat #14269) and recombinant human IL10 (Sigma, Cat #19276) were performed to compare the molecular size of the IL4-IL10 fusion protein with that of the wild-type cytokines.

Row | Protein | binding result
1 | recombinant human IL10 (Sigma, Cat #19276) (ligand, UniProt P22301 19-178, looked up, also called recombinant IL10; wild-type IL10) SPGQGTQSENSCTHFPGNLPNMLRDLRDAFSRVKTFFQMKDQLDNLLLKESLLEDFKGYLGCQALSEMIQFYLEEVMPQAENQDPDIKAHVNSLGENLKTLRLRLRRCHRFLPCENKSKAVEQVKNAFNKLQEKGIYKAMSEFDIFINYIEAYMTMKIRN | binds
2 | IL4-IL10 fusion protein (other, glycosylated (two glycoforms on the blot, one band after PNGaseF); made with co-transfected sialyltransferase to cap the glycans with sialic acid; sites not stated, On the Western blot it was reduced and denatured; also called IL4-10 fusion protein; IL4-IL10 protein) HKCDITLQEIIKTLNSLTEQKTLCTELTVTDIFAASKNTTEKETFCRAATVLRQFYSHHEKDTRCLGATAQQFHRHKQLIRFLKRLDRNLWGLAGLNSCPVKEANQSTLENFLERLKTIMREKYSKCSSGSGGGGSGTSPGQGTQSENSCTHFPGNLPNMLRDLRDAFSRVKTFFQMKDQLDNLLLKESLLEDFKGYLGCQALSEMIQFYLEEVMPQAENQDPDIKAHVNSLGENLKTLRLRLRRCHRFLPCENKSKAVEQVKNAFNKLQEKGIYKAMSEFDIFINYIEAYMTMKIRN | binds
